# Source: the supplement of paper PMC7877785
# ± gives the uncertainty stated by the source.
# Assay: self-splicing fitness, log relative to wild type (ln ratio); higher = more splicing; Tetrahymena group I intron in knt gene, E. coli kanamycin selection, DiMSum; sequences stand for … in CUCUCU…GGAGGGAAAAGUUAUCAGGCAUGCACCUGGUAGCUAGUCUUUAAACCAAUAGAUUGCAUCGGUUUAAAAGGCAAGACCGUCAAAUUGCGGGAAAGGGGUCAACAGCCGUUCAGUACCAAGUCUCAGGGGAAACUUUGAGAUGGCCUUGCAAAGGGUAUGGUAAUAAGCUGACGGACAUGGUCCUAACCACGCAGCCAAGUCCUAAGUCAACAGAUCUUCUGUUGAUAUGGAUGCAGUUCACAGACUAAAUGUCGGUCGGGGAAGAUGUAUUCUUCUCAUAAGAUAUAGUCGGACCUCUCCUUAAUGGGAGCUAGCGGAUGAAGUGAUGCAACACUGGAGCCGCUGGGAACUAAUUUGUAUGCGAAAGUAUAUUGAUUAGUUUUGGAGUACUCGUGGUCG
# Method in brief: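 A randomised library covering all eight P1ex-region intron nucleotides was built with the intron in the knt kanamycin-resistance gene on pET-22b(+) and held in E. coli BL21(DE3). Cells were grown overnight at 37°C or 30°C on LB agar, with or without 25 μg/mL kanamycin, plus 100 μg/mL carbenicillin, 50 μM IPTG and 0.2% rhamnose, and pooled colonies were amplicon-sequenced on an Illumina HiSeq 2500. DiMSum fitness is the error-weighted combination of wild-type-normalised replicate fold changes, kanamycin versus none.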
Sequence,self-splicing fitness (ln) (30 °C),self-splicing fitness (ln) (37 °C)
UAAUAGCAAUAUUACGUCCU,-0.907 ± 0.19,-0.798 ± 0.23
UAAUAGCAAUAUUACGUCGU,-2.91 ± 0.34,-0.94 ± 0.23
UAAUAGCAAUAUUACGUGGG,-2.91 ± 0.3,-3.08 ± 0.27
UAAUAGCAAUAUUACGUUUA,-1.86 ± 0.15,-1.81 ± 0.12
UACAAGCAAUAUUACGACGG,-0.767 ± 0.059,-0.442 ± 0.079
UACAAGCAAUAUUACGAGAG,-3.24 ± 0.17,-2.65 ± 0.18
UACAAGCAAUAUUACGAGGA,-2.98 ± 0.2,-1.8 ± 0.14
UACAAGCAAUAUUACGAUUA,-0.0989 ± 0.079,0.278 ± 0.085
UACAAGCAAUAUUACGCACC,-1.62 ± 0.14,-1.42 ± 0.23
UACAAGCAAUAUUACGCCGU,-2.13 ± 0.16,-1.62 ± 0.18
UACAAGCAAUAUUACGCGAC,-3.51 ± 0.27,-1.5 ± 0.22
UACAAGCAAUAUUACGCUGG,-2.54 ± 0.15,-1.87 ± 0.15
UACAAGCAAUAUUACGGAGC,-3.08 ± 0.21,-2.78 ± 0.34
UACAAGCAAUAUUACGUCAU,-3.94 ± 0.16,-1.05 ± 0.096
UACAAGCAAUAUUACGUCCA,-1.06 ± 0.086,-0.297 ± 0.096
UACAAGCAAUAUUACGUCGA,-1.78 ± 0.08,-0.266 ± 0.082
UACAAGCAAUAUUACGUGUA,-3.33 ± 0.15,-2.69 ± 0.14
UACAAGCAAUAUUACGUGUG,-2.96 ± 0.11,-1.7 ± 0.1
UACAAGCAAUAUUACGUUAA,-3.35 ± 0.14,-1.74 ± 0.092
UACCAGCAAUAUUACGAAAA,-1.43 ± 0.17,-1.11 ± 0.13
UACCAGCAAUAUUACGAAAU,-2.64 ± 0.14,-1.26 ± 0.13
UACCAGCAAUAUUACGACUU,-0.799 ± 0.046,-0.301 ± 0.056
UACCAGCAAUAUUACGAUAA,-0.622 ± 0.093,-0.122 ± 0.1
UACCAGCAAUAUUACGCACU,-0.478 ± 0.063,0.393 ± 0.081

Sequence,self-splicing fitness (ln) (30 °C),self-splicing fitness (ln) (37 °C)
UACCAGCAAUAUUACGCAUC,-1.93 ± 0.095,-1.13 ± 0.095
UACCAGCAAUAUUACGCAUU,-2.42 ± 0.092,-0.373 ± 0.078
UACCAGCAAUAUUACGCCAG,-0.698 ± 0.08,-1.13 ± 0.1
UACCAGCAAUAUUACGCCCG,-0.0448 ± 0.11,-0.0962 ± 0.14
UACCAGCAAUAUUACGCCCU,-0.895 ± 0.12,0.138 ± 0.13
UACCAGCAAUAUUACGCGGA,-1.69 ± 0.079,-1.04 ± 0.082
UACCAGCAAUAUUACGCGUC,-2.06 ± 0.11,-1.13 ± 0.1
UACCAGCAAUAUUACGCUUU,-1.86 ± 0.093,-0.589 ± 0.1
UACCAGCAAUAUUACGGAGA,-1.13 ± 0.07,-0.596 ± 0.073
UACCAGCAAUAUUACGGGAU,-3.25 ± 0.16,-1.53 ± 0.12
UACCAGCAAUAUUACGGGGC,-4.11 ± 0.29,-2.72 ± 0.2
UACCAGCAAUAUUACGGUAU,-3.15 ± 0.16,-2.35 ± 0.18
UACCAGCAAUAUUACGGUCA,-0.0407 ± 0.07,0.125 ± 0.1
UACCAGCAAUAUUACGGUUC,-3.88 ± 0.18,-1.38 ± 0.14
UACCAGCAAUAUUACGUACU,-2.92 ± 0.17,-1.4 ± 0.15
UACCAGCAAUAUUACGUCUG,-3.46 ± 0.13,-2.46 ± 0.12
UACCAGCAAUAUUACGUUAC,-2.83 ± 0.3,-2.26 ± 0.21
UACCAGCAAUAUUACGUUGU,-3.56 ± 0.12,-2.66 ± 0.12
UACGAGCAAUAUUACGAAUC,-4.18 ± 0.34,-2.03 ± 0.39
UACGAGCAAUAUUACGAAUU,-4.2 ± 0.46,-3.21 ± 0.39
UACGAGCAAUAUUACGACAG,-2.49 ± 0.21,-0.615 ± 0.2
UACGAGCAAUAUUACGAGAC,-3.68 ± 0.26,-2.72 ± 0.27
UACGAGCAAUAUUACGAGCG,-1.12 ± 0.13,-0.262 ± 0.14
UACGAGCAAUAUUACGAGGG,-1.82 ± 0.12,-2.11 ± 0.27

Sequence,self-splicing fitness (ln) (30 °C),self-splicing fitness (ln) (37 °C)
UACGAGCAAUAUUACGAUAU,-2.39 ± 0.26,-3.25 ± 0.37
UACGAGCAAUAUUACGAUGA,-2.05 ± 0.19,-2.41 ± 0.2
UACGAGCAAUAUUACGAUUA,-1.13 ± 0.14,-0.74 ± 0.12
UACGAGCAAUAUUACGCAAU,-3.04 ± 0.17,-2.65 ± 0.18
UACGAGCAAUAUUACGCCCG,-3.1 ± 0.18,-2.02 ± 0.17
UACGAGCAAUAUUACGCGGU,-3.15 ± 0.2,-2.67 ± 0.26
UACGAGCAAUAUUACGCUGC,,-2.59 ± 0.41
UACGAGCAAUAUUACGGACA,-3.34 ± 0.26,-1.72 ± 0.17
UACGAGCAAUAUUACGGAGG,-2.06 ± 0.5,
UACGAGCAAUAUUACGGCAA,-1.96 ± 0.24,-0.476 ± 0.18
UACGAGCAAUAUUACGGCGU,-2.83 ± 0.33,-1.73 ± 0.29
UACGAGCAAUAUUACGGCUA,0.411 ± 0.22,0.683 ± 0.23
UACGAGCAAUAUUACGGGCC,,-3.34 ± 0.28
UACGAGCAAUAUUACGGGUU,-2.88 ± 0.14,-3.21 ± 0.23
UACGAGCAAUAUUACGGUAA,-1.82 ± 0.37,-0.747 ± 0.28
UACGAGCAAUAUUACGGUUA,-0.815 ± 0.11,0.152 ± 0.11
UACGAGCAAUAUUACGUAAC,-4.91 ± 0.41,-3.7 ± 0.3
UACGAGCAAUAUUACGUAGC,-3.67 ± 0.46,-1.01 ± 0.21
UACGAGCAAUAUUACGUCCA,-2.8 ± 0.27,-1.69 ± 0.27
UACGAGCAAUAUUACGUCCG,-2.29 ± 0.13,-1.25 ± 0.17
UACGAGCAAUAUUACGUGCA,-3.16 ± 0.19,-1.32 ± 0.13
UACGAGCAAUAUUACGUUUU,-3.66 ± 0.17,-2.4 ± 0.16
UACUAGCAAUAUUACGAAUU,-4.02 ± 0.42,-2.32 ± 0.25
UACUAGCAAUAUUACGACCG,-0.634 ± 0.13,0.287 ± 0.16

Sequence,self-splicing fitness (ln) (30 °C),self-splicing fitness (ln) (37 °C)
UACUAGCAAUAUUACGAGUC,-2.67 ± 0.31,-1.09 ± 0.14
UACUAGCAAUAUUACGAGUG,-1.07 ± 0.083,-0.536 ± 0.1
UACUAGCAAUAUUACGAGUU,-2.16 ± 0.11,-0.685 ± 0.1
UACUAGCAAUAUUACGCACC,-1.86 ± 0.2,-1.22 ± 0.26
UACUAGCAAUAUUACGCACU,-0.822 ± 0.068,0.229 ± 0.079
UACUAGCAAUAUUACGCAUC,-2.36 ± 0.14,-1.53 ± 0.18
UACUAGCAAUAUUACGCCUG,-0.00481 ± 0.11,1.03 ± 0.14
UACUAGCAAUAUUACGCGUU,-2.33 ± 0.11,-0.827 ± 0.1
UACUAGCAAUAUUACGGAAC,-3.78 ± 0.34,-3.03 ± 0.32
UACUAGCAAUAUUACGGGAG,-2.3 ± 0.11,-1.19 ± 0.1
UACUAGCAAUAUUACGGGCU,-3.52 ± 0.28,-2.87 ± 0.34
UACUAGCAAUAUUACGGUCU,-1.3 ± 0.094,-0.2 ± 0.13
UACUAGCAAUAUUACGUACC,-2.24 ± 0.17,-1.72 ± 0.23
UACUAGCAAUAUUACGUGGA,-3.03 ± 0.22,-2.47 ± 0.21
UACUAGCAAUAUUACGUUGU,-2.48 ± 0.17,-2.21 ± 0.17
UAGAAGCAAUAUUACGAAUU,-2.42 ± 0.46,-1.29 ± 0.27
UAGAAGCAAUAUUACGACAU,-1.569 ± 0.014,-0.76 ± 0.033
UAGAAGCAAUAUUACGACGU,-1.27 ± 0.1,-0.768 ± 0.098
UAGAAGCAAUAUUACGACUA,-0.222 ± 0.11,0.71 ± 0.14
UAGAAGCAAUAUUACGAGAC,-2.67 ± 0.35,-1.99 ± 0.3
UAGAAGCAAUAUUACGAUGG,-1.84 ± 0.097,-1.32 ± 0.12
UAGAAGCAAUAUUACGAUUA,-0.441 ± 0.08,-0.0749 ± 0.093
UAGAAGCAAUAUUACGCAGG,-2.7 ± 0.15,-2.19 ± 0.15
UAGAAGCAAUAUUACGCCCG,-0.762 ± 0.18,0.487 ± 0.23
